# Data taken from patent US12227579B2, “Bispecific antibody targeting IL-1R1 and NLPR3” (University of Ulster, priority 2018, dated 2025).
# Tests used:
# THP1 cells [1] = assay: IL-1β release from LPS/ATP-stimulated differentiated THP1 cells (ELISA); format: cell-based; conditions: PMA-differentiated THP1, LPS 1 μg/ml 3 h, Ab 0.0025-2.5 ng/ml (FIG. 33a) or 1 nM (FIG. 33b) 30 min, ATP 5 mM 1 h; supernatant ELISA
# Method: THP1 cells, for FIGS. 33a and b, were cultured in 96-well plates at 100,000 cells/200 μl complete media. PMA (100 μg/ml for 72 hours) was used to differentiate THP-1 cells into macrophages. Following 24 hours of rest, differentiated THP1 cells were stimulated with LPS (1 μg/ml) for 3 hours, treated with MCC950 (1 μM) or the IL-1R1/NLRP3 Ab in a dose dependent fashion from 0.0025 ng/ml to 2.5 ng/ml for FIG. 33a or with IL-1R1/NLRP3 Ab (1 nM) for FIG. 33b or with IgG control antibody for 30 minutes, followed by ATP (5 mM) for 1 hour. IL-1 release was measured in the supernatant by ELISA.
# [2] = system: microbead-induced mouse model of glaucoma; assay: Microbead-induced mouse model of glaucoma; format: in vivo
# Method: In the current study, WT C57BL/6J mice are receiving a single intravitreal injection of Inflamab (final vitreous concentration of 2.5, 25, or 250 ng/ml) on Day 0, immediately preceding the injection of microbeads and mice receiving saline only (no beads) are serving as a non-glaucoma control. RGC function is currently being measured by pERG using a fully integrated ERG system for rodents (Celeris). Changes in pERG amplitude is being measured in mice that received microbeads only and compared to mice that received microbeads plus Inflamab (final vitreous concentration of 2.5, 25, and 250 ng/ml) or saline only (no beads) [FIG. 42]. […] Visual acuity using an optomotor reflex-based spatial frequency threshold test, as well as RGC and axon quantification, is performed to further corroborate the neuroprotective effect of Inflamab and including additional control groups (microbead-injected mice treated with the appropriate IgG control antibody).
# RGC analysis in WT mice treated with the NLRP3 inhibitor MCC950—see FIG. 41. […]
# RGC function in WT mice treated with the NLRP3 inhibitor InflaMab—see FIG. 42. […] RGC function was measured by pERG using a fully integrated ERG system for rodents (Celeris) and changes in pERG amplitude was measured in mice that received microbeads only and compared to mice that received microbeads plus Inflamab (2.5, 25, and 250 ng/ml) or saline only (no beads). […]
# THP1 cells [3] = assay: Internalization of pHrodo red labelled bi-specific Ab in THP1 cells; format: cell-based; conditions: pHrodo red labelled Ab 1 ug/ml 30 min, LPS then ATP; confocal image
# Method: (§1) Internalization of Inflamab—see FIG. 35. THP1 cells, for FIG. 35, were cultured in 96-well plates at 100,000 cells/200 ul complete media. Differentiation of THP1 cells was induced by PMA (100 ug/ml for 72 hours). Following 24 hours of rest, differentiated THP1 cells were stimulated with LPS (1 ug/ml) for 3 hours, treated with a pHrodo red labelled IL-1 r/NLRP3 Ab (1 ug/ml) for 30 minutes, followed by ATP (5 mM) for 1 hour. The internalization of the Ab was tracked using a pHrodo red labelled bi-specific Ab that only fluoresces when internalized.
# THP1 cells [4] = assay: Caspase-1 activation in THP1 cells (FAM-FLICA staining, confocal); format: cell-based
# Method: THP1 cells, for FIG. 34, were cultured in 96-well plates at 100,000 cells/200 ul complete media. PMA ([…] for 72 hours) was used to differentiated THP-1 cells into macrophages. Following 24 hours of rest, differentiated THP1 cells were stimulated with LPS (1 ug/ml) for 3 hours, treated with the IL-1R1/NLRP3 Ab (1 ug/ml) for 30 minutes, followed by ATP (5 mM) for 1 hour. Caspase-1 activation was assessed by staining cells with a non-cytotoxic Fluorescent Labelled Inhibitor of Caspase-1 (FAM-FLICA) and DAPI (nuclear stain). Cells were treated with LPS alone (negative control), LPS+ATP (positive control), mouse IgG2a (1 ug/ml, Ab control), or IL-1 r/NLRP3 bi-specific Ab (1 ug/ml, experimental). Representative confocal images are shown for each group. Green=active caspae-1 and blue=Dapi/nuclear stain.
# as §1
# NLRP3 inflammasome = NLRP3 inflammasome (Homo sapiens, UniProt Q96P20); assay: NLRP3 assembly in vitro assay; conditions: among hybridoma clones
# Chain of NLRP3 inflammasome (Q96P20 whole entry): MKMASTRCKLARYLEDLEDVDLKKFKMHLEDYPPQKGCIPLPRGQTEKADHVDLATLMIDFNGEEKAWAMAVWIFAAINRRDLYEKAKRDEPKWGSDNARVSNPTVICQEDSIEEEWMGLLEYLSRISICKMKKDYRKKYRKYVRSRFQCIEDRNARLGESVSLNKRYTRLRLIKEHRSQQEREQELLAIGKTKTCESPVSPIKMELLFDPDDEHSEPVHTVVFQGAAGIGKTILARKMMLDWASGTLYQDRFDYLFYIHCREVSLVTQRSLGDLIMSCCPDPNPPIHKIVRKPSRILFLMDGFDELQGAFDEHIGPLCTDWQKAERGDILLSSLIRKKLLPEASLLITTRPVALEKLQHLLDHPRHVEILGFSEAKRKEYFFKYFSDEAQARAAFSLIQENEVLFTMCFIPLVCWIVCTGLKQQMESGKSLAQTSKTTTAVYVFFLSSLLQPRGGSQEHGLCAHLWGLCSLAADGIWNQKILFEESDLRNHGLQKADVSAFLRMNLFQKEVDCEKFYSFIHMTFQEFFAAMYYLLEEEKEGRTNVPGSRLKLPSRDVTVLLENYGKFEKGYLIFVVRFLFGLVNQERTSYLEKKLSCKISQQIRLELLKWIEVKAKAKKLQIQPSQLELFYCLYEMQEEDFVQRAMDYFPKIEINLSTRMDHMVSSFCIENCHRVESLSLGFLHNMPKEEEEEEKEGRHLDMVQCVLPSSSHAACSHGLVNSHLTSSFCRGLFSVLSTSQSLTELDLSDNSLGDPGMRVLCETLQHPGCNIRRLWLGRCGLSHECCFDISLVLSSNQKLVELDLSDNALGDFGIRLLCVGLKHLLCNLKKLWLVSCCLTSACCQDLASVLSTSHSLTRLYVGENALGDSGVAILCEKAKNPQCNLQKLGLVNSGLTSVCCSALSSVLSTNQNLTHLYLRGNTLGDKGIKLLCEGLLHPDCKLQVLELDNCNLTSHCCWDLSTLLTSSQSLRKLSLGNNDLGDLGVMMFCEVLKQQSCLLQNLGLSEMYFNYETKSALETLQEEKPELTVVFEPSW
Molecule,IL-1β release (THP1 cells [1]),"death of RGCs ([2]; InflaMab, FIG. 42 title)","RGC function (pERG amplitude) ([2]; single intravitreal injection Day 0, final vitreous concentration 250 ng/ml, compared to microbeads only or Inflamab at 2.5 or 25 ng/ml, preliminary)",internalization of the Ab (THP1 cells [3]),"caspase-1 activation (THP1 cells [4]; differentiated THP1, LPS 1 ug/ml 3 h, Ab 1 ug/ml 30 min, ATP 5 mM 1 h, FAM-FLICA)","caspase-1 activation in THP1 cells that have internalized the Ab (THP1 cells [4]; pHrodo red labelled Ab 1 ug/ml, compared to THP1 cells that did not internalize the Ab)",preventing NLRP3 assembly (NLRP3 inflammasome)
"InflaMab: 210 kDa bispecific mouse antibody against IL-1R1 and NLRP3; light chain SEQ ID NO: 57, heavy chain SEQ ID NO: 59 (antibody) heavy: MGWTLVFLFLLSVTAGVHSQIQLVQSGPELRKPGETVRISCKASGYPFTTAGLQWVQKMSGKGLKWIGWMNTQSEVPKYAEEFKGRIAFSLETAASTAYLQINNLKTEDTATYFCAKSVYFNWRYFDVWGAGTTVTVSSAKTTAPSVYPLAPVCGDTTGSSVTLGCLVKGYFPEPVTLTWNSGSLSSGVHTFPAVLQSDLYTLSSSVTVTSSTWPSQSITCNVAHPASSTKVDKKIEPRGPTIKPCPPCKCPAPNLLGGPSVFIFPPKIKDVLMISLSPIVTCVVVDVSEDDPDVQISWFVNNVEVHTAQTQTHREDYNSTLRVVSALPIQHQDWMSGKEFKCKVNNKDLPAPIERTISKPKGSVRAPQVYVLPPPEEEMTKKQVTLTCMVTDFMPEDIYVEWTNNGKTELNYKNTEPVLDSDGSYFMYSKLRVEKKNWVERNSYSCSVVHEGLHNHHTTKSFSRTPGKGSAGGSGGDSEVQLVESGGGLVKPGGSLKLSCAASGFTFSDYYMYWVRQTPEKRLEWVATISDGGTYTYYPDSVKGRFTISRDNAKNNLYLQMNSLKSEDTAMYYCARGWVSTMVKLLSSFPYWGQGTLVTVSAGGGGSGGGGSGGGGSQAVVTQESALTTSPGETVTLTCRSSTGAVTTSNYANWVQEKPDHLFTGLIGGTNNRAPGVPARFSGSLIGDKAALTITGAQTEDEAIYFCALWYSNYWVFGGGTKLTVLGQPK light: MVSSAQFLGLLLLCFQGTRCDIVMTQSPATLSVTPGDRVSLSCRASQSISDYLSWYQQRSHESPRLIIKYASQSISGIPSRFSGSGSGSDFTLSINSVEPEDVGVYYCQHGHSFPLTFGSGTKLELKRADAAPTVSIFPPSSEQLTSGGASVVCFLNNFYPKDINVKWKIDGSERQNGVLNSWTDQDSKDSTYSMSSTLTLTKDEYERHNSYTCEATHKTSTSPIVKSFNRNEC",prevents IL-1β release,prevents death of RGCs,recovery of RGC function,internalization,prevents caspase-1 activation,significant reduction of caspase-1 activation,
"F226 7A7-1E1-2D5: anti-NLRP3 monoclonal antibody from hybridoma clone, sequenced and used in the bispecific (antibody, V domains shown) VH: EVQLVESGGGLVKPGGSLKLSCAASGFTFSDYYMYWVRQTPEKRLEWVATISDGGTYTYYPDSVKGRFTISRDNAKNNLYLQMNSLKSEDTAMYYCARGWVSTMVKLLSSFPYWGQGTLVTVSAAKTTPPSVYPLA VL: QAVVTQESALTTSPGETVTLTCRSSTGAVTTSNYANWVQEKPDHLFTGLIGGTNNRAPGVPARFSGSLIGDKAALTITGAQTEDEAIYFCALWYSNYWVFGGGTKLTVLGQPKSSPSVTLFPPSTEKLSL",,,,,,,most active
